Assay results: patent US20200165345A1 (GlaxoSmithKline, published 2020)

B1: 1G11 (antibody, V domains shown)
VH: QVQLQQSGDDLVKPGASVKLSCKASGYTFTSYYINWIKQRPGQGLECIGRIAPGNTYYNEIFKGKAILTVDTSSSTAYIQLSSLSSEDSGVYFCARRGYEGALDYWGQGTSVTVSS
VL: DIVLTQSPATLSVTPGDSVSLSCRASQRISNNLHWYQQKSHESPRLLIKYVSQSISGIPSRFSGSGSGTDFTLSINSVETEDFGMYFCQQSNSWPLTFGAGTKLELKR
B2: 3A3 (antibody, mouse IgG1, kappa, V domains shown)
VH: QVQLQQSGAELAKPGASVKMSCKASGYTFSSYWMHWVKQRPGQGLEWIGYINPSTGYTDYNQKFKDKATLTADKSSNTAYMQLSSLTSDDSAVYYCARSRAARYWGQGTTLTVSS
VL: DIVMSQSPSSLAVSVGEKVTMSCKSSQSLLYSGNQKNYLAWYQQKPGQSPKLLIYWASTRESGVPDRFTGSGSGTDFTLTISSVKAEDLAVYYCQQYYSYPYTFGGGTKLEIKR
B3: 8E5 (antibody, mouse IgG1, kappa, V domains shown)
VH: EVQLVESGGDLVKPGGSLKLSCAASGFTFSTYGMSWVRQTPDKGLEWVATVSTGGTYTYYPDSVKGRFTISRDNAKNTLYLQMSSLKSEDTAMYYCARGGYSFAYWGQGTLVTVSA
VL: ENVLTQSPAIMSASPGEKVTMTCRASSSVSSSYLHWYQQKSGVSPKLWIYSTSNLASGVPARFSGSGSGTSYSLTISSVEAEDAATYYCQQYSGYPLTFGAGTKLELKR
B4: Humanised 1G11 (antibody, human IgG1, kappa, V domains shown)
VH: QVQLVQSGAEVKKPGSSVKVSCKASGYTFTSYYINWVRQAPGQGLESMGRIAPGNTYYNEIFKGRVTITADKSTSTAYMELSSLRSEDTAVYYCARRGYEGALDYWGQGTLVTVSS
VL: EIVLTQSPATLSLSPGERATLSCRASQRISNNLHWYQQKPGQAPRLLIKYVSQSISGIPARFSGSGSGTDFTLTISSLEPEDFAVYYCQQSNSWPLTFGQGTKLEIKR
notes: Straight graft of 1G11 CDRs with serine at Kabat position 47 of the heavy chain (H7, Lo1); human IgG1 Fc with L235A and G237A (EU numbering), Fc-disabled; also called humanised 1G11 (H7, Lo1); copies: 2 + 2

What was measured:
[1] = target: T1, human full-length TrkB receptor (human, UniProt Q16620 32-822); experiment: cell-based or functional assay
T1 sequence (Q16620 32-822 limits assumed): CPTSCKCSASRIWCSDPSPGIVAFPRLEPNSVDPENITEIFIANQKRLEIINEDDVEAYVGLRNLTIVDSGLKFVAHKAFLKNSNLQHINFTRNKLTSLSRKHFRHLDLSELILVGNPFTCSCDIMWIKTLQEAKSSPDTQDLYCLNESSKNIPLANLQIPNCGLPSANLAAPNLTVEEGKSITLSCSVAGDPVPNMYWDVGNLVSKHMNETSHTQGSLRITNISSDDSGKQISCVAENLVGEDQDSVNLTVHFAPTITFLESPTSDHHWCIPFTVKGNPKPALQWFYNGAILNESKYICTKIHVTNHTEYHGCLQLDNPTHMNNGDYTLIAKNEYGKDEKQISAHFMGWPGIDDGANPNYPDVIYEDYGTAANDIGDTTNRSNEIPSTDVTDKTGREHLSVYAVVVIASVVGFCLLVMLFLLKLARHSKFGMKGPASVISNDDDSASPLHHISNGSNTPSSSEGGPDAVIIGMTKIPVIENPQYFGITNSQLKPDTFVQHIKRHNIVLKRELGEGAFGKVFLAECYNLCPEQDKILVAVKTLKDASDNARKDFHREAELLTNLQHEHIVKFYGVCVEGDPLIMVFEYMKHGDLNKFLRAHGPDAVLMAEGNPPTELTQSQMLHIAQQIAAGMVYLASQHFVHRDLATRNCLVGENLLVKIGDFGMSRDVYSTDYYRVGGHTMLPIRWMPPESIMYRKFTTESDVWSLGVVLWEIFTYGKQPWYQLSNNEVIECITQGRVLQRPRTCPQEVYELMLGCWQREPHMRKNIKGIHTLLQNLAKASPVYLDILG

[2] = target: T1, human full-length TrkB receptor; experiment: cell-based or functional assay; remark: listed apart in the source
[3] = target: T1, human full-length TrkB receptor; experiment: cell-based or functional assay; remark: listed apart in the source
mouse TrkB receptor = target: T2, mouse TrkB receptor (mouse, UniProt P15209 32-821); experiment: method not detailed
T2 construct: whole, on cells; also called murine TrkB; rodent TrkB
T2 sequence (P15209 32-821): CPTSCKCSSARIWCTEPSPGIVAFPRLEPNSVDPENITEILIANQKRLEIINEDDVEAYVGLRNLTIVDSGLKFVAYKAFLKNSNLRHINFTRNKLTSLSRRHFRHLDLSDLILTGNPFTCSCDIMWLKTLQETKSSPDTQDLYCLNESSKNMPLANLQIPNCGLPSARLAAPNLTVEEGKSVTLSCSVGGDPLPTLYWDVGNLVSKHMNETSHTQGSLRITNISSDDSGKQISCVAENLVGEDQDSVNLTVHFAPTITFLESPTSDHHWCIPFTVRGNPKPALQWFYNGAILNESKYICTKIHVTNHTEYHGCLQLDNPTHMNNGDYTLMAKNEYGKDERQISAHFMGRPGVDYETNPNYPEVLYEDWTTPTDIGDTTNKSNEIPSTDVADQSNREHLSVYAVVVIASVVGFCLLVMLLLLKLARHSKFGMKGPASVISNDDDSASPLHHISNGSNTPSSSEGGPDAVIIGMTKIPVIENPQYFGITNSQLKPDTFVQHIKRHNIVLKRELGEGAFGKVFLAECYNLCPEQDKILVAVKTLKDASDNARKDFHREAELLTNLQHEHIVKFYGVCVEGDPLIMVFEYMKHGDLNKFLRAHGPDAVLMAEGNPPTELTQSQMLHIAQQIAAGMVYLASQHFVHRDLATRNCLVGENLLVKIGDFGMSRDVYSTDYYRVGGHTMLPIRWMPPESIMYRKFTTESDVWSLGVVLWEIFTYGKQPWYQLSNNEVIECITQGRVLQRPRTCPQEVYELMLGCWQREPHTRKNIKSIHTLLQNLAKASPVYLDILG

rat TrkB receptor = target: T3, rat TrkB receptor (rat, UniProt Q63604 32-821); experiment: method not detailed
T3 construct: whole, on cells; also called rodent TrkB
T3 sequence (Q63604 32-821): as the sequence (P15209 32-821) above, with T3M, S9T, A10T, V32I, R63K, S84G, M153T, L185I, S394T, S770N counted along it

Row | Binder | Activation of TrkB (pTrkB, Y515), EC50 [1] [nM] | Potentiation of BDNF-induced agonism of TrkB (pTrkB, % of BDNF alone) [1] [%] | EC50 (read off the curve); pTrkB relative activity in the presence of 10 nM BDNF [2] [nM] | cell survival, PC12 cells expressing human TrkB, EC50 [3] [nM] | neurite outgrowth, PC12 cells expressing human TrkB, EC50 [3] [nM] | binding result (mouse TrkB receptor) | binding result (rat TrkB receptor) | levels of phosphorylated TrkB in CHO-K1 cells, EC50 [3] [nM]
1 | B1 | 3.1 | ~130 | ~10 | – | – | – | – | –
2 | B2 | – | ~160 | ~0.7 | 0.006 | – | – | – | –
3 | B3 | – | ~120 | – | 0.09 | 1.58 | – | – | –
4 | B4 | – | – | – | – | – | binds | binds | 0.65
